This is an account of results in US20260193342A1 (ZOETIS SERVICES, published 2026).

B1: mAb2 of Table 4A, caninized anti-NGF antibody ZTS-841, canine IgGA, N434R (antibody)
heavy: EVQLVESGGDLVKPGGSLRLSCVASGFTFSSHGMHWVRQSPGKGLQWVAVINSGGSSTYYTDAVKGRFTISRDNAKNTVYLQMNSLRAEDTAMYYCAKESVGGWEQLVGPHFDYWGQGTLVIVSSASTTAPSVFPLAPSCGSTSGSTVALACLVSGYFPEPVTVSWNSGSLTSGVHTFPSVLQSSGLHSLSSMVTVPSSRWPSETFTCNVVHPASNTKVDKPVFNECRCTDTPPCPVPEPLGGPSVLIFPPKPKDILRITRTPEVTCVVLDLGREDPEVQISWFVDGKEVHTAKTQSREQQFNGTYRVVSVLPIEHQDWLTGKEFKCRVNHIDLPSPIERTISKARGRAHKPSVYVLPPSPKELSSSDTVSITCLIKDFYPPDIDVEWQSNGQQEPERKHRMTPPQLDEDGSYFLYSKLSVDKSRWQQGDPFTCAVMHETLQRHYTDLSLSHSPGK
VL: QSVLTQPTSVSGSLGQRVTISCSGSTNNIGILGASWYQLFPGKAPKLLVYGNGNRPSGVPDRFSGADSGDSVTLTITGLQAEDEADYYCQSFDTTLGAHVFGGGTHLTVL
notes: also called ID No. 42
B2: mAb2 of Table 4A, caninized anti-NGF antibody ZTS-841, canine IgGB, N434G (antibody)
heavy: EVQLVESGGDLVKPGGSLRLSCVASGFTFSSHGMHWVRQSPGKGLQWVAVINSGGSSTYYTDAVKGRFTISRDNAKNTVYLQMNSLRAEDTAMYYCAKESVGGWEQLVGPHFDYWGQGTLVIVSSASTTAPSVFPLAPSCGSTSGSTVALACLVSGYFPEPVTVSWNSGSLTSGVHTFPSVLQSSGLYSLSSMVTVPSSRWPSETFTCNVAHPASKTKVDKPVPKRENGRVPRPPDCPKCPAPEMLGGPSVFIFPPKPKDTLLIARTPEVTCVVVDLDPEDPEVQISWFVDGKQMQTAKTQPREEQFNGTYRVVSVLPIGHQDWLKGKQFTCKVNNKALPSPIERTISKARGQAHQPSVYVLPPSREELSKNTVSLTCLIKDFFPPDIDVEWQSNGQQEPESKYRTTPPQLDEDGSYFLYSKLSVDKSRWQRGDTFICAVMHEALHGHYTQESLSHSPGK
VL: QSVLTQPTSVSGSLGQRVTISCSGSTNNIGILGASWYQLFPGKAPKLLVYGNGNRPSGVPDRFSGADSGDSVTLTITGLQAEDEADYYCQSFDTTLGAHVFGGGTHLTVL
notes: also called ID No. 49
B3: mAb2 of Table 4A, caninized anti-NGF antibody ZTS-841, canine IgGB, WT (antibody)
heavy: EVQLVESGGDLVKPGGSLRLSCVASGFTFSSHGMHWVRQSPGKGLQWVAVINSGGSSTYYTDAVKGRFTISRDNAKNTVYLQMNSLRAEDTAMYYCAKESVGGWEQLVGPHFDYWGQGTLVIVSSASTTAPSVFPLAPSCGSTSGSTVALACLVSGYFPEPVTVSWNSGSLTSGVHTFPSVLQSSGLYSLSSMVTVPSSRWPSETFTCNVAHPASKTKVDKPVPKRENGRVPRPPDCPKCPAPEMLGGPSVFIFPPKPKDTLLIARTPEVTCVVVDLDPEDPEVQISWFVDGKQMQTAKTQPREEQFNGTYRVVSVLPIGHQDWLKGKQFTCKVNNKALPSPIERTISKARGQAHQPSVYVLPPSREELSKNTVSLTCLIKDFFPPDIDVEWQSNGQQEPESKYRTTPPQLDEDGSYFLYSKLSVDKSRWQRGDTFICAVMHEALHNHYTQESLSHSPGK
VL: QSVLTQPTSVSGSLGQRVTISCSGSTNNIGILGASWYQLFPGKAPKLLVYGNGNRPSGVPDRFSGADSGDSVTLTITGLQAEDEADYYCQSFDTTLGAHVFGGGTHLTVL
notes: also called ID No. 46
B4: mAb2 of Table 4A, caninized anti-NGF antibody ZTS-841, canine IgGB, N434A (antibody)
heavy: EVQLVESGGDLVKPGGSLRLSCVASGFTFSSHGMHWVRQSPGKGLQWVAVINSGGSSTYYTDAVKGRFTISRDNAKNTVYLQMNSLRAEDTAMYYCAKESVGGWEQLVGPHFDYWGQGTLVIVSSASTTAPSVFPLAPSCGSTSGSTVALACLVSGYFPEPVTVSWNSGSLTSGVHTFPSVLQSSGLYSLSSMVTVPSSRWPSETFTCNVAHPASKTKVDKPVPKRENGRVPRPPDCPKCPAPEMLGGPSVFIFPPKPKDTLLIARTPEVTCVVVDLDPEDPEVQISWFVDGKQMQTAKTQPREEQFNGTYRVVSVLPIGHQDWLKGKQFTCKVNNKALPSPIERTISKARGQAHQPSVYVLPPSREELSKNTVSLTCLIKDFFPPDIDVEWQSNGQQEPESKYRTTPPQLDEDGSYFLYSKLSVDKSRWQRGDTFICAVMHEALHAHYTQESLSHSPGK
VL: QSVLTQPTSVSGSLGQRVTISCSGSTNNIGILGASWYQLFPGKAPKLLVYGNGNRPSGVPDRFSGADSGDSVTLTITGLQAEDEADYYCQSFDTTLGAHVFGGGTHLTVL
notes: also called ID No. 47
B5: mAb2 of Table 4A, caninized anti-NGF antibody ZTS-841, canine IgGA, N434S (antibody)
heavy: EVQLVESGGDLVKPGGSLRLSCVASGFTFSSHGMHWVRQSPGKGLQWVAVINSGGSSTYYTDAVKGRFTISRDNAKNTVYLQMNSLRAEDTAMYYCAKESVGGWEQLVGPHFDYWGQGTLVIVSSASTTAPSVFPLAPSCGSTSGSTVALACLVSGYFPEPVTVSWNSGSLTSGVHTFPSVLQSSGLHSLSSMVTVPSSRWPSETFTCNVVHPASNTKVDKPVFNECRCTDTPPCPVPEPLGGPSVLIFPPKPKDILRITRTPEVTCVVLDLGREDPEVQISWFVDGKEVHTAKTQSREQQFNGTYRVVSVLPIEHQDWLTGKEFKCRVNHIDLPSPIERTISKARGRAHKPSVYVLPPSPKELSSSDTVSITCLIKDFYPPDIDVEWQSNGQQEPERKHRMTPPQLDEDGSYFLYSKLSVDKSRWQQGDPFTCAVMHETLQSHYTDLSLSHSPGK
VL: QSVLTQPTSVSGSLGQRVTISCSGSTNNIGILGASWYQLFPGKAPKLLVYGNGNRPSGVPDRFSGADSGDSVTLTITGLQAEDEADYYCQSFDTTLGAHVFGGGTHLTVL
notes: also called ID No. 43
B6: mAb2 of Table 4A, caninized anti-NGF antibody ZTS-841, canine IgGB, N434F (antibody)
heavy: EVQLVESGGDLVKPGGSLRLSCVASGFTFSSHGMHWVRQSPGKGLQWVAVINSGGSSTYYTDAVKGRFTISRDNAKNTVYLQMNSLRAEDTAMYYCAKESVGGWEQLVGPHFDYWGQGTLVIVSSASTTAPSVFPLAPSCGSTSGSTVALACLVSGYFPEPVTVSWNSGSLTSGVHTFPSVLQSSGLYSLSSMVTVPSSRWPSETFTCNVAHPASKTKVDKPVPKRENGRVPRPPDCPKCPAPEMLGGPSVFIFPPKPKDTLLIARTPEVTCVVVDLDPEDPEVQISWFVDGKQMQTAKTQPREEQFNGTYRVVSVLPIGHQDWLKGKQFTCKVNNKALPSPIERTISKARGQAHQPSVYVLPPSREELSKNTVSLTCLIKDFFPPDIDVEWQSNGQQEPESKYRTTPPQLDEDGSYFLYSKLSVDKSRWQRGDTFICAVMHEALHFHYTQESLSHSPGK
VL: QSVLTQPTSVSGSLGQRVTISCSGSTNNIGILGASWYQLFPGKAPKLLVYGNGNRPSGVPDRFSGADSGDSVTLTITGLQAEDEADYYCQSFDTTLGAHVFGGGTHLTVL
notes: also called ID No. 48
B7: mAb1, caninized anti-IL31 antibody 34D03, canine IgGA, N434W (antibody)
heavy: EVQLVESGGDLVKPGGSLRLSCVASGFTFSNYGMSWVRQAPGKGLQWVATISYGGSYTYYPDNIKGRFTISRDNAKNTLYLQMNSLRAEDTAMYYCVRGYGYDTMDYWGQGTLVTVSSASTTAPSVFPLAPSCGSTSGSTVALACLVSGYFPEPVTVSWNSGSLTSGVHTFPSVLQSSGLHSLSSMVTVPSSRWPSETFTCNVVHPASNTKVDKPVFNECRCTDTPPCPVPEPLGGPSVLIFPPKPKDILRITRTPEVTCVVLDLGREDPEVQISWFVDGKEVHTAKTQSREQQFNGTYRVVSVLPIEHQDWLTGKEFKCRVNHIDLPSPIERTISKARGRAHKPSVYVLPPSPKELSSSDTVSITCLIKDFYPPDIDVEWQSNGQQEPERKHRMTPPQLDEDGSYFLYSKLSVDKSRWQQGDPFTCAVMHETLQWHYTDLSLSHSPGK
light: EIVMTQSPASLSLSQEEKVTITCKASQSVSFAGTGLMHWYQQKPGQAPKLLIYRASNLEAGVPSRFSGSGSGTDFSFTISSLEPEDVAVYYCQQSREYPWTFGQGTKLEIKRNDAQPAVYLFQPSPDQLHTGSASVVCLLNSFYPKDINVKWKVDGVIQDTGIQESVTEQDKDSTYSLSSTLTMSSTEYLSHELYSCEITHKSLPSTLIKSFQRSEC
notes: VH/VL: the caninized 34D03 entries of the listing; also called ID No. 6; copies: 2 + 2

The test deals with canine FcRn complex (FcRn-α subunit and β-microglobulin) (canine, UniProt A0A8I3PFR8 25-347, biotin on the BAP tag by BirA (Example 5 only)). Briefly: SPR (Biacore), biotinylated FcRn on SA chip, IgG flowed, pH 6, 15 C.
canine FcRn complex (FcRn-α subunit and β-microglobulin), sequence (A0A8I3PFR8 entry or part of it, one chain of several): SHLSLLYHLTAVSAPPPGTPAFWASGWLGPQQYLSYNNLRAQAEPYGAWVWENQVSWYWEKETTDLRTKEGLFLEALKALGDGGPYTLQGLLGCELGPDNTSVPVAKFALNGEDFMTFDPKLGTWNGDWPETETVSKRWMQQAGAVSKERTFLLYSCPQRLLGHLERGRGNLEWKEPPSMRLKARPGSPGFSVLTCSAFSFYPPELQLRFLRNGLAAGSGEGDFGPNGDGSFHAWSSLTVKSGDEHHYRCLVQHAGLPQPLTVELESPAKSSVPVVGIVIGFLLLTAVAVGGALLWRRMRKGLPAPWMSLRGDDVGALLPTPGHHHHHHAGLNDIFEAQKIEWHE
B1 came in with a Kd of 15.1 nM. As for B2, the figure is 34.3 nM; as for B3, 91.5 nM. As for B4, the figure is 9.81 nM; as for B5, 147 nM; as for B6, 1.92 nM. As for B7, the figure is 19.9 nM.

A word on the Kd: it is a measure of binding affinity in units of concentration. Low readings indicate higher affinity, high ones lower affinity.
